Results published in patent publication US20190330277A1 (PIRBRIGHT INSTITUTE, published 2019).

How the values were obtained:
[1] = molecular target: T1, 391-2-DS-Cav1-sc9deleteFS 98C-361C; test: ELISA, variant from culture supernatant on Ni-NTA plate;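 note: antigenic evaluation of variants transiently transfected and expressed in 96-well plate cell cultures at 37 °C, 5% CO2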
T1 construct: also called DS2-v8
Procedure: (§1) Initial assessment of all constructs were performed using a 96-well microplate format for high throughput expression followed by an ELISA-based antigenic evaluation as described previously 17. […] Plasmid DNA and TrueFect-Max (United BioSystems, MD) were mixed and added to the growing cells, and the 96-well plate incubated at 37° C., 5% CO2. One day post transfection, enriched medium (high glucose DMEM plus 25% ultra-low IgG fetal bovine serum, 2× nonessential amino acids, 1× glutamine) was added to each well, and the 96-well plate was returned to the incubator for continuous culture.

[2] = molecular target: T2, 391-2-DS-Cav1-sc9deleteFS 99C-361C; test: as above
T2 construct: also called DS2-v15
Procedure: as §1

[3] = molecular target: T3, 391-2-DS-Cav1-sc9deleteFS 99C-362C; test: as above
T3 construct: also called DS2-v16
Procedure: as §1

[4] = molecular target: T4, RB94 dscav1T369C-T455C Long S190V; test: as above
T4 construct: also called DS2-v18
Procedure: as §1

[5] = molecular target: T5, RB94 sc9 DS-CAV1 A149C-Y458C L373R; test: as above
T5 construct: also called DS2-v20
Procedure: as §1

[6] = molecular target: T6, RB94 sc9 DS-CAV1 A149C-Y458C L373R Long; test: as above
T6 construct: also called DS2-v22
Procedure: as §1

[7] = molecular target: T7, 391-2-DS-Cav1_ sc9_S398C-S485C; test: as above
T7 construct: also called DS2-v23
Procedure: as §1

[8] = molecular target: T8, RB94 sc9 DS-CAV1 A149C-Y458C L373R Long K226L; test: as above
T8 construct: also called DS2-v24
Procedure: as §1

[9] = molecular target: 391-2-DS-Cav1_ I28C-G464C; test: as above
Procedure: as §1

[10] = molecular target: T9, 391-2-DS-Cav1_ sc9_S485C-A490C; test: as above
T9 construct: also called DS2-v28
Procedure: as §1

[11] = molecular target: T10, 391-2-DS-Cav1_ sc9_T449C-V459C; test: as above
T10 construct: also called DS2-v31
Procedure: as §1

[12] = molecular target: T11, RB94_sc9-10 DS-CAV1 L373R; test: ELISA, variant from culture supernatant on Ni-NTA plate [continued]
T11 construct: also called sc-v38
Procedure: as §1

391-2_DS-Cav1-tzsc4 [13] = molecular target: T12, 391-2_DS-Cav1-tzsc4; test: as above
T12 construct: also called sc-v39
Procedure: as §1

391-2-DS-Cav1-IP-2 = molecular target: T13, 391-2-DS-Cav1-IP-2; test: as above
T13 construct: also called sc-v40
Procedure: as §1

[14] = molecular target: T14, RB94 DS-CAV1 N70K S104F K117T; test: as above
T14 construct: also called sc-v41
Procedure: as §1

[15] = molecular target: T15, sc9-10_DS-CAV1_bRSV(RB94)_Fd_(hRSV-leader)_ig1; test: as above
T15 construct: also called sc-v43
Procedure: as §1

[16] = molecular target: T16, sc9-10_DS-CAV1_bRSV(RB94)_Fd_fp1_ig1; test: as above
T16 construct: also called sc-v44
Procedure: as §1

391-2-DS-Cav1-BZGJ9_gyc3 = molecular target: T17, 391-2-DS-Cav1-BZGJ9_gyc3; test: as above
T17 construct: also called sc-v45
Procedure: as §1

391-2-DS-Cav1-IP-7 = molecular target: T18, 391-2-DS-Cav1-IP-7; test: as above
T18 construct: also called sc-v46
Procedure: as §1

391-2-DS-Cav1-BZGJ9 = molecular target: T19, 391-2-DS-Cav1-BZGJ9; test: as above
T19 construct: also called sc-v47
Procedure: as §1

391-2-DS-Cav1-BZGJ9_gyc2 = molecular target: T20, 391-2-DS-Cav1-BZGJ9_gyc2; test: as above
T20 construct: also called sc-v48
Procedure: as §1

391-2-DS-Cav1-SC-IP-1 = molecular target: T21, 391-2-DS-Cav1-SC-IP-1; test: as above
T21 construct: also called sc-v49
Procedure: as §1

KXds2 = molecular target: T22, KXds2; test: as above
T22 construct: also called sc-v50
Procedure: as §1

391-2_DS-Cav1-tzsc4 [17] = molecular target: T23, 391-2_DS-Cav1-tzsc4; test: as above
T23 construct: also called sc-v51
Procedure: as §1

391-2_DS-Cav1-tzsc9 = molecular target: T24, 391-2_DS-Cav1-tzsc9; test: as above
T24 construct: also called sc-v52
Procedure: as §1

391-2-DS-Cav1-BZGJ9_gyc4 = molecular target: T25, 391-2-DS-Cav1-BZGJ9_gyc4; test: as above
T25 construct: also called sc-v53
Procedure: as §1

391-2-DS-Cav1- F-SC_11R = molecular target: T26, 391-2-DS-Cav1- F-SC_11R; test: as above
T26 construct: also called sc-v54
Procedure: as §1

391-2-DS-Cav1-BZGJ9_gyc6 = molecular target: T27, 391-2-DS-Cav1-BZGJ9_gyc6; test: as above
T27 construct: also called sc-v55
Procedure: as §1

KXsb2 = molecular target: T28, KXsb2; test: as above
T28 construct: also called sc-v56
Procedure: as §1

391-2_DS-Cav1-tzsc2 = molecular target: T29, 391-2_DS-Cav1-tzsc2; test: as above
T29 construct: also called sc-v57
Procedure: as §1

391-2_DS-Cav1-tzsc6 = molecular target: T30, 391-2_DS-Cav1-tzsc6; test: as above
T30 construct: also called sc-v58
Procedure: as §1

[18] = molecular target: T31, 391-2-DS-Cav1-BZGJ9_gyc10; test: as above
T31 construct: also called sc-v60
Procedure: as §1

Binder | ELISA binding value [1] | ELISA binding value [2] | ELISA binding value [3] | ELISA binding value [4] | ELISA binding value [5] | ELISA binding value [6] | ELISA binding value [7] | ELISA binding value [8] | ELISA binding value [9] | ELISA binding value [10] | ELISA binding value [11] | ELISA binding value [12] | ELISA binding value (391-2_DS-Cav1-tzsc4 [13]) | ELISA binding value (391-2-DS-Cav1-IP-2) | ELISA binding value [14] | ELISA binding value [15] | ELISA binding value [16] | ELISA binding value (391-2-DS-Cav1-BZGJ9_gyc3) | ELISA binding value (391-2-DS-Cav1-IP-7) | ELISA binding value (391-2-DS-Cav1-BZGJ9) | also measured
D25 antibody (antibody, V domains shown, also called mAb D25) VH: QVQLVQSGAEVKKPGSSVMVSCQASGGPLRNYIINWLRQAPGQGPEWMGGIIPVLGTVHYAPKFQGRVTITADESTDTAYIHLISLRSEDTAMYYCATETALVVSTTYLPHYFDNWGQGTLVTVSS VL: DIQMTQSPSSLSAAVGDRVTITCQASQDIVNYLNWYQQKPGKAPKLLIYVASNLETGVPSRFSGSGSGTDFSLTISSLQPEDVATYYCQQYDNLPLTFGGGTKVEIK | 0.271 | 0.198 | 0.197 | 0.182 | 0.175 | 0.158 | 0.144 | 0.144 | 0.139 | 0.136 | 0.133 | 0.27 | 0.219 | 0.197 | 0.17 | 0.197 | 0.191 | 0.164 | 0.201 | 0.183 | ELISA binding value (391-2-DS-Cav1-BZGJ9_gyc2): 0.144; ELISA binding value (391-2-DS-Cav1-SC-IP-1): 0.0985; ELISA binding value (KXds2): 0.109; ELISA binding value (391-2_DS-Cav1-tzsc4 [17]): 0.138; ELISA binding value (391-2_DS-Cav1-tzsc9): 0.132; ELISA binding value (391-2-DS-Cav1-BZGJ9_gyc4): 0.138; ELISA binding value (391-2-DS-Cav1- F-SC_11R): 0.161; ELISA binding value (391-2-DS-Cav1-BZGJ9_gyc6): 0.135; ELISA binding value (KXsb2): 0.132; ELISA binding value (391-2_DS-Cav1-tzsc2): 0.0883; ELISA binding value (391-2_DS-Cav1-tzsc6): 0.138; ELISA binding value [18]: 0.136
MPE8 antibody (antibody, V domains shown, also called mAb MPE8) VH: EVQLVESGGGLVKPGGSLRLSCAASGFTFSSYSMNWVRQAPGKGLEWVSSISASSSYSDYADSAKGRFTISRDNAKTSLFLQMNSLRAEDTAIYFCARARATGYSSITPYFDIWGQGTLVTVSS VL: QSVVTQTPSVSGAPGQRVTISCTGSSSNIGAGYDVHWYQQLPGTAPKLLIYDNNNRPSGVPDRFSASKSGTSASLAITGLQAEDEADYYCQSYDRNLSGVFGTGTKVTVL | 0.43 | 0.229 | 0.2 | 0.371 | 0.154 | 0.0692 | 0.0849 | 0.0872 | 0.0815 | 0.0579 | 0.1 | 0.258 | 0.263 | 0.217 | 0.201 | 0.105 | 0.0965 | 0.123 | 0.0761 | 0.0926 | ELISA binding value (391-2-DS-Cav1-BZGJ9_gyc2): 0.12; ELISA binding value (391-2-DS-Cav1-SC-IP-1): 0.155; ELISA binding value (KXds2): 0.143; ELISA binding value (391-2_DS-Cav1-tzsc4 [17]): 0.096; ELISA binding value (391-2_DS-Cav1-tzsc9): 0.1; ELISA binding value (391-2-DS-Cav1-BZGJ9_gyc4): 0.0901; ELISA binding value (391-2-DS-Cav1- F-SC_11R): 0.0668; ELISA binding value (391-2-DS-Cav1-BZGJ9_gyc6): 0.0866; ELISA binding value (KXsb2): 0.0752; ELISA binding value (391-2_DS-Cav1-tzsc2): 0.109; ELISA binding value (391-2_DS-Cav1-tzsc6): 0.0583; ELISA binding value [18]: 0.0498
